Results from US20200283478A1 (Genentech, published 2020).
Read-outs that look alike come from different tables or passages of the source.

Legend:
Test in all cases: phage spot ELISA
[1] = target: T1, proprotein convertase subtilisin/kexin type 9 (PCSK9) (human, UniProt Q8NBP7 31-692)
T1 construct: His-tagged full-length PCSK9 in TR-FRET and SPR, biotinylated in phage ELISA; secreted protein is autoprocessed (prodomain plus catalytic/CRD chain starting at S153); also called rec.PCSK9; His-PCSK9
Text: The binding signal of the same phage particle to NeutrAvidin was considered as non-specific binding (“noise”).

PCSK9Δhelix [2] = target: T2, PCSK9Δhelix (human, Chemically biotinylated in the phage ELISAs; the site is not given.)
T2 construct: construct M1-Q692 with engineered TEV site, cleaved by TEV; also called His-PCSK9Δhelix; open groove PCSK9Δhelix

[3] = target: T1, proprotein convertase subtilisin/kexin …; remark: listed apart in the source
PCSK9Δhelix [4] = target: T2, PCSK9Δhelix; remark: listed apart in the source

T2 sequence (prodomain, as listed by the source mutant limits assumed, chain 1 of 2): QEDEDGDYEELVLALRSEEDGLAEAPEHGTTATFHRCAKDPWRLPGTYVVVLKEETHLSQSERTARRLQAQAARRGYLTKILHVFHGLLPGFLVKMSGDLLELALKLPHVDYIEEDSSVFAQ
T2 sequence (chain, as listed by the source mutant limits assumed, chain 2 of 2): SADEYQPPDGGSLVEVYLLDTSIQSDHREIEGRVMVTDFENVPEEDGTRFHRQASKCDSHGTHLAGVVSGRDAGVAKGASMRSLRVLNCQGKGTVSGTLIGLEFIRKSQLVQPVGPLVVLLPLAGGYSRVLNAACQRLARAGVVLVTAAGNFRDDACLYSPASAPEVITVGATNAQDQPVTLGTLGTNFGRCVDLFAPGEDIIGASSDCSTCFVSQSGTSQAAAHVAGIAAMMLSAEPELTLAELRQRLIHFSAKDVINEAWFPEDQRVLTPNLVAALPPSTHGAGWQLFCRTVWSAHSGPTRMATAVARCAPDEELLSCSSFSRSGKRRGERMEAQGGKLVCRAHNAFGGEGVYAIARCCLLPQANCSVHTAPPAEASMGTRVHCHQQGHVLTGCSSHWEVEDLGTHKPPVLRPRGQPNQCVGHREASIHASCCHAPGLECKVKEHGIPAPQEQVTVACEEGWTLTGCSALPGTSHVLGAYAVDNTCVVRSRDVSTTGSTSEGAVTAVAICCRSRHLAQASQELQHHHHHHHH
T1 sequence (Q8NBP7 other isoform, or with tags, fused parts or gaps limits assumed): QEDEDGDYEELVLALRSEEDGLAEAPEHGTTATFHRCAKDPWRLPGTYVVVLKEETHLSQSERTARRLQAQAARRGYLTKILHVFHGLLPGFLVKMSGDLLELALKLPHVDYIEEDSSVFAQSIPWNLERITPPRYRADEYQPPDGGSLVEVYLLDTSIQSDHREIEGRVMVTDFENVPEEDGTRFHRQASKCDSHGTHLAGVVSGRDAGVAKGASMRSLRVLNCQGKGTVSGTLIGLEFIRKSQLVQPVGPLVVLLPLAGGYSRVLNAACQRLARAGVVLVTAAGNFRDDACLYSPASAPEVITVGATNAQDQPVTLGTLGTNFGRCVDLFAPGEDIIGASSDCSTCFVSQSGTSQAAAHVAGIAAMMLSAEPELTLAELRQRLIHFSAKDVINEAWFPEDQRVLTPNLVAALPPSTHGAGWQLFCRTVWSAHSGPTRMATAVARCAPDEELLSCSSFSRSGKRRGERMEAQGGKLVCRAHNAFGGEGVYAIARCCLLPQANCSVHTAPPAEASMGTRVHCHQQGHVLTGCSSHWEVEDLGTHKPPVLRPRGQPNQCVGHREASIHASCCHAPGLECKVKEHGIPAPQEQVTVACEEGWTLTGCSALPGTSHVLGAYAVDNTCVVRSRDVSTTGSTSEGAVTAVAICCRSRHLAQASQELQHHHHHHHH

Row | Binder | ELISA [1] | s/n ratio [1] | ELISA (PCSK9Δhelix [2]) | s/n ratio (PCSK9Δhelix [2]) | ELISA [3] | s/n ratio [3] | ELISA (PCSK9Δhelix [4]) | s/n ratio (PCSK9Δhelix [4])
1 | TAFTSWEEYLDWVGSGNPTYWLTRIS [SEQ ID NO 331] | 2.98 | 23.1 | 3.02 | 28 | – | – | – | –
2 | TAFTSWEEYLDWVGSGGPWNLNRV [SEQ ID NO 309] | 2.68 | 27.6 | 2.7 | 29.3 | – | – | – | –
3 | TAFTSWEEYLDWVGSGQVTSLPQA [SEQ ID NO 363] | – | – | – | – | 2.46 | 27.9 | 0.11 | 1.21
4 | TAFTSWEEYLDWVGSGEHQFYSYRGVDVYR [SEQ ID NO 324] | 2.55 | 22.3 | 2.66 | 26.2 | – | – | – | –
5 | TAFTSWEEYLDWVGSGKNNYAYLINMPRAPGI [SEQ ID NO 325] | 2.54 | 24.7 | 2.54 | 29.1 | – | – | – | –
6 | TAFTSWEEYLDWVGSGSPCRVGYTPC [SEQ ID NO 351] | – | – | – | – | 2.92 | 27.7 | 2.87 | 25.4
7 | TAFTSWEEYLDWVGSGNCARLYSHQRDYSQVC [SEQ ID NO 352] | – | – | – | – | 2.66 | 24.4 | 2.64 | 26.1
8 | TAFTSWEEYLDWVGSGVPWNLARL [SEQ ID NO 314] | 2.82 | 29.3 | 2.68 | 27.3 | – | – | – | –
9 | TAFTSWEEYLDWVGSGVPWNLAKI [SEQ ID NO 315] | 2.69 | 22.4 | 2.67 | 24.1 | – | – | – | –
10 | TAFTSWEEYLDWVGSGEDVVCYGRVDYMPLCV [SEQ ID NO 330] | 2.67 | 25.2 | 2.7 | 24.8 | – | – | – | –
11 | TAFTSWEEYLDWVGSGACLNHFVSGNMIRC [SEQ ID NO 327] | 2.87 | 26.1 | 1.38 | 8.17 | – | – | – | –
12 | TAFTSWEEYLDWVGSGCPFYDWRCSDFS [SEQ ID NO 328] | 2.8 | 25 | 2.78 | 26.5 | – | – | – | –
13 | TAFTSWEEYLDWVGSGGCVKYRGSVSCQESKT [SEQ ID NO 323] | 2.85 | 18 | 2.73 | 24.2 | – | – | – | –
14 | TAFTSWEEYLDWVGSGGCGYRYMCDMINGL [SEQ ID NO 358] | – | – | – | – | 2.92 | 32.8 | 3.01 | 30.4
15 | TAFTSWEEYLDWVGSGPLLWNLQKVH [SEQ ID NO 310] | 2.75 | 23.5 | 2.76 | 24.4 | – | – | – | –
16 | TAFTSWEEYLDWVGSGKCDSHYIRGVVACH [SEQ ID NO 356] | – | – | – | – | 2.95 | 30.2 | 3.03 | 30.9
17 | TAFTSWEEYLDWVGSGSCSWNVERIRGCSV [SEQ ID NO 311] | 2.92 | 18.8 | 2.83 | 26 | – | – | – | –
18 | TAFTSWEEYLDWVGSGVVLWNHSRIL [SEQ ID NO 313] | 2.95 | 26.8 | 2.96 | 26.6 | – | – | – | –
19 | TAFTSWEEYLDWVGSGKMTHMKAD [SEQ ID NO 357] | – | – | – | – | 2.31 | 22.4 | 0.106 | 1.07
20 | TAFTSWEEYLDWVGSGGDCYPHCRLV [SEQ ID NO 359] | – | – | – | – | 2.86 | 28.9 | 2.85 | 28.5
21 | TAFTSWEEYLDWVGSGNELWNINRLRSS [SEQ ID NO 317] | 2.94 | 12 | 2.76 | 13.2 | – | – | – | –

Row | Binder | ELISA [1] | s/n ratio [1] | ELISA (PCSK9Δhelix [2]) | s/n ratio (PCSK9Δhelix [2]) | ELISA [3] | s/n ratio [3] | ELISA (PCSK9Δhelix [4]) | s/n ratio (PCSK9Δhelix [4])
22 | TAFTSWEEYLDWVGSGKLWNLTRISS [SEQ ID NO 312] | 2.87 | 28.1 | 2.69 | 25.8 | – | – | – | –
23 | TAFTSWEEYLDWVGSGGHPLWNLSRI [SEQ ID NO 316] | 2.73 | 25.7 | 2.6 | 9.12 | – | – | – | –
24 | TAFTSWEEYLDWVGSGSSTWHFVGGVRV [SEQ ID NO 354] | – | – | – | – | 2.71 | 24.4 | 2.88 | 29.7
25 | TAFTSWEEYLDWVGSGPTSGLTPS [SEQ ID NO 361] | – | – | – | – | 2.66 | 27.5 | 0.127 | 1.3
26 | TAFTSWEEYLDWVGSGRCESKGWANTCVSE [SEQ ID NO 362] | – | – | – | – | 2.98 | 20.7 | 2.56 | 15.8
27 | TAFTSWEEYLDWVGSGKLWNLGRV [SEQ ID NO 306] | 2.79 | 28.2 | 2.62 | 8.55 | – | – | – | –
28 | TAFTSWEEYLDWVGSGDCLRYRVGSSCS [SEQ ID NO 360] | – | – | – | – | 3.04 | 29.6 | 2.87 | 28.9
29 | TAFTSWEEYLDWVGSGGEYLWNLKRLES [SEQ ID NO 320] | 2.84 | 28.7 | 2.94 | 26 | – | – | – | –
30 | TAFTSWEEYLDWVGSGNVRCYRDVPSCS [SEQ ID NO 329] | 2.66 | 25.9 | 2.68 | 26.3 | – | – | – | –
31 | TAFTSWEEYLDWVGSGRCGLAWCVVLVDQ [SEQ ID NO 365] | – | – | – | – | 2.62 | 20.8 | 2.8 | 28.5
32 | TAFTSWEEYLDWVGSGCLDRSGGCYTREGYLS [SEQ ID NO 353] | – | – | – | – | 3.06 | 29 | 3.05 | 30.4
33 | TAFTSWEEYLDWVGSGPHSYWLDRVQ [SEQ ID NO 332] | 2.89 | 25.3 | 2.68 | 24.6 | – | – | – | –
34 | TAFTSWEEYLDWVGSGMPWNLARIER [SEQ ID NO 318] | 2.86 | 27.8 | 3 | 30.3 | – | – | – | –
35 | TAFTSWEEYLDWVGSGNCWSSLRGICENLG [SEQ ID NO 307] | 2.81 | 21.7 | 2.91 | 22.5 | – | – | – | –
36 | TAFTSWEEYLDWVGSGMVYVDRGVRVFT [SEQ ID NO 322] | 2.82 | 27.9 | 2.71 | 25.1 | – | – | – | –
37 | TAFTSWEEYLDWVGSGCYPLCRVG [SEQ ID NO 355] | – | – | – | – | 3.06 | 16.2 | 3.05 | 29.6
38 | TAFTSWEEYLDWVGSGCYPLCRVL [SEQ ID NO 364] | – | – | – | – | 2.86 | 31.1 | 3.09 | 31.9
39 | TAFTSWEEYLDWVGSGALWNMRRVESVAFR [SEQ ID NO 319] | 3.09 | 23.9 | 3.04 | 20.1 | – | – | – | –
40 | TVFTSWEEYLDWV (also called phage displaying Pep2-8) [phage-displayed Pep2-8 (on p8)] | 2.98 | 30 | 2.1 | 21.8 | – | – | – | –
41 | TAFTSWEEYLDWV [phage-displayed Pep2-8V2A] | 1.27 | 16.7 | 0.07 | 1.07 | – | – | – | –
